Data taken from article PMC3614025.
“And” between values parts separate entries of the source, which are not always exact repeats. Equal entries are not always repeated.

Biological target: Chikungunya virus nuclear capsid protein (Chikungunya virus)
Assay: cryo-EM structure

“Chikungunya virus nuclear capsid protein (natural protein)” was tested. Which stoichiometry N did it give?
The stoichiometry N was 5 and 6.
